PMC4939875 (Nature, 2016)
One block for each molecule: values may come before it.

Key:
U-2-OS cells = experiment: Clonogenic assay upon GFP-TONSL induction; type: cell-based; conditions: siTONSL; presence and absence of CPT 50 nM 24 h; 12-15 days; +tet
histones H3–H4 = experiment: Pull-down with recombinant histones H3–H4; type: binding; conditions: GST-ARD with H3–H4 tetramers, 20 mM Tris pH 7.5, 0.5 M NaCl, 23 °C, 1 h; IVT full length TONSL with H3.1–H4 beads, 2 h

B1: TONSL WT: siRNA resistant GFP-TONSL, wild type, inducible in U-2-OS (protein)
chain: MSLERELRQLSKAKAKAQRAGQRREEAALCHQLGELLAGHGRYAEALEQHWQELQLRERADDPLGCAVAHRKIGERLAEMEDYPAALQHQHQYLELAHSLRNHTELQRAWATIGRTHLDIYDHCQSRDALLQAQAAFEKSLAIVDEELEGTLAQGELNEMRTRLYLNLGLTFESLQQTALCNDYFRKSIFLAEQNHLYEDLFRARYNLGTIHWRAGQHSQAMRCLEGARECAHTMRKRFMESECCVVIAQVLQDLGDFLAAKRALKKAYRLGSQKPVQRAAICQNLQHVLAVVRLQQQLEEAEGRDPQGAMVICEQLGDLFSKAGDFPRAAEAYQKQLRFAELLDRPGAERAIIHVSLATTLGDMKDHHGAVRHYEEELRLRSGNVLEEAKTWLNIALSREEAGDAYELLAPCFQKALSCAQQAQRPQLQRQVLQHLHTVQLRLQPQEAPETETRLRELSVAEDEDEEEEAEEAAATAESEALEAGEVELSEGEDDTDGLTPQLEEDEELQGHLGRRKGSKWNRRNDMGETLLHRACIEGQLRRVQDLVRQGHPLNPRDYCGWTPLHEACNYGHLEIVRFLLDHGAAVDDPGGQGCEGITPLHDALNCGHFEVAELLLERGASVTLRTRKGLSPLETLQQWVKLYRRDLDLETRQKARAMEMLLQAAASGQDPHSSQAFHTPSSLLFDPETSPPLSPCPEPPSNSTRLPEASQAHVRVSPGQAAPAMARPRRSRHGPASSSSSSEGEDSAGPARPSQKRPRCSATAQRVAAWTPGPASNREAATASTSRAAYQAAIRGVGSAQSRLGPGPPRGHSKALAPQAALIPEEECLAGDWLELDMPLTRSRRPRPRGTGDNRRPSSTSGSDSEESRPRARAKQVRLTCMQSCSAPVNAGPSSLASEPPGSPSTPRVSEPSGDSSAAGQPLGPAPPPPIRVRVQVQDHLFLIPVPHSSDTHSVAWLAEQAAQRYYQTCGLLPRLTLRKEGALLAPQDLIPDVLQSNDEVLAEVTSWDLPPLTDRYRRACQSLGQGEHQQVLQAVELQGLGLSFSACSLALDQAQLTPLLRALKLHTALRELRLAGNRLGDKCVAELVAALGTMPSLALLDLSSNHLGPEGLRQLAMGLPGQATLQSLEELDLSMNPLGDGCGQSLASLLHACPLLSTLRLQACGFGPSFFLSHQTALGSAFQDAEHLKTLSLSYNALGAPALARTLQSLPAGTLLHLELSSVAAGKGDSDLMEPVFRYLAKEGCALAHLTLSANHLGDKAVRDLCRCLSLCPSLISLDLSANPEISCASLEELLSTLQKRPQGLSFLGLSGCAVQGPLGLGLWDKIAAQLRELQLCSRRLCAEDRDALRQLQPSRPGPGECTLDHGSKLFFRRL
modifications: left off: GFP, end not stated, kept
- viability of TONSL depleted cells (colony formation) (U-2-OS cells): partially rescued viability

- direct binding to histones H3–H4 in vitro (histones H3–H4): bound directly to histones H3–H4
B2: Full length TONSL: in vitro-translated full length TONSL (protein)
chain: B1 chain
modifications: 35S-methionine

- direct binding to histones H3–H4 in vitro (histones H3–H4): bound directly to histones H3–H4
B3: WT: human TONSL Ankyrin Repeat Domain (residues 512–692), wild type (protein)
chain: GHLGRRKGSKWNRRNDMGETLLHRACIEGQLRRVQDLVRQGHPLNPRDYCGWTPLHEACNYGHLEIVRFLLDHGAAVDDPGGQGCEGITPLHDALNCGHFEVAELLLERGASVTLRTRKGLSPLETLQQWVKLYRRDLDLETRQKARAMEMLLQAAASGQDPHSSQAFHTPSSLLFDPETS
modifications: left off: GST, end not stated, cleaved
